# Assay results as given in article PMC9287174.
# Experiments:
# [1] = biological target: StayGold (CU17S/V168A) (Cytaeis uchidae); assay: pseudonative SDS-PAGE; non-heated protein samples separated on 10% polyacrylamide gels
# [2] = biological target: StayGold (CU17S/V168A) (Cytaeis uchidae); assay: AUC; sedimentation equilibrium; purified recombinant StayGold at 2.8 uM in 50 mM HEPES-NaOH (pH 7.4), 24 C, absorbance at 497 nm
substance,measurement,setting,value
StayGold (CU17S/V168A) (natural protein),stoichiometry N,[1],2
same,stoichiometry N,[2],2
